The record followed here is patent US20220096654A1, “PYRROLOBENZODIAZEPINE-ANTIBODY CONJUGATES AND USES THEREOF” (ADC THERAPEUTICS SA, priority 2020, published 2022).

Data set [1] concerns human CD45+ OCIM1 cells. Kind of data set: Complement dependent cytotoxicity (51Cr release) assay. Type of data set: cell-based. As to conditions: 10 ug/ml antibody, 10% baby rabbit serum. As to the method:
1×10^6 human CD45+ OCIM1 cells in 100 uL of complete medium (RPMI 1640 plus 10% fetal calf serum) were radiolabelled with 100 μCi ^51Cr sodium chromate for 1 h at 37° C. followed by three washes with complete medium. Labelled cells were incubated at 5×10^4/mL in triplicate wells of a 96 well plate in presence of YTH24.5 alone, YTH54.12 alone or with both antibodies for 10 mins at room temperature before of addition of baby rabbit serum at a final concentration of 10%. A final concentration of 5% Triton X-100 was added to control wells of cells to determined maximum lysis. 50 uL of supernatant from each well was transferred into a white-walled plates containing 150 uL scintillation liquid in each well. Plates were read in a MicroBeta counter (Trilux) after overnight incubation. The percentage of specific lysis was calculated using the standard formula [(experimental−spontaneous release)/(maximum load-spontaneous release)×100] and expressed as the mean of triplicate samples.

Data set [2] deals with CD34+ PBSC (CD45+). The experiment in a line: Clonogenic assay, CD34+ PBSC treated 2 h with Mab or ADC. Type of data set: cell-based, human. As to the method:
Cryopreserved purified CD34+ cells from mobilized peripheral blood from three normal donors were thawed and cultured at […] complete medium (RPMI 1640 plus 10% fetal calf serum) in presence of Mab, ADC or medium alone for 2 hours in 96-well U-bottom plates. Cells were mixed and 40 uL was transferred to 2 ml of StemMACS HSC-CFU complete with Epo (Miltenyi Biotech) and mixed well. 0.5 ml (250 cells) was plated into triplicate into wells of a 24-well plate. Colonies were enumerated between 10-14 days. Data is mean of three donors±s.d.

Data set [3] has as its system human CD34+ cells. The experiment in a line: Ex vivo treatment of CD34+ cells with Mab or ADC prior to engraftment in NSG mice. As to conditions: CD34+ cells treated at 1 nM and 0.1 nM for 4 hours before transplantation; week 8. The protocol:
Adult female NSG mice were sublethally irradiated with 2.5 Gy on the day before transplantation. Cryopreserved purified CD34+ cells from mobilized peripheral blood from a normal donor were thawed and cultured in complete medium (RPMI 1640 plus 10% fetal calf serum) in presence of Mab, ADC or medium alone for 4 hours. Cells were washed in phosphate buffered saline (PBS) and 0.5×10^6 cells in PBS were injected intravenously into the tail vein of mice. Engraftment of transplanted human cells (hCD45+) in the bone marrow of mice was determined by flow cytometry at 8 weeks after transplantation.

Data set [4] in a line: Dosimetry in non-humanised NSG mice. Type of data set: in vivo. As to conditions: for Comment (survival / culling): non-humanised NSG mice, monitored 2 weeks; for mice culled due to weight loss: human (hIgG1-AAA) format, ≥3 mg/kg, humanised and non-humanised mice. The protocol:
For dosimetry in non-humanised NSG mice, adult NSG mice were injected intravenously via the tail vein with unconjugated Mab or ADC up to 5 mg/kg. Mice regularly monitored over a period of 2 weeks for any signs of morbidity. Mice were culled if rapid weight loss (>15%) occurred over a period of 2 days.

For data set [5], the system named is human CD45+ cells. The experiment in a line: Depletion of human CD45+ cells in humanised NSG mice. The format is in vivo. The protocol:
Adult female NSG mice were sublethally irradiated with 2.5 Gy on the day before transplantation (day −57). Cryopreserved purified CD34+ cells from mobilized peripheral blood from a normal donor were thawed and 0.5×10^6 cells in PBS were injected intravenously into the tail vein of mice (day −56). Human engraftment (human CD45+ cells) in the blood of mice was assessed at day −14 and day −1. Mice were assigned to treatment cohorts so that the median human CD45+ engraftment in the blood between the cohorts was as similar as possible. Mice were injected with 0.3 mg/kg or 1 mg/kg Mab or ADC intravenously via the tail vein. Blood samples were taken after 7 days and analysed by flow cytometry. The bone marrow, blood and spleen of mice were analysed at two weeks post-treatment.

For data set [6], the system named is luciferase expressing human CD45+ Jurkat cells. The experiment in a line: Jurkat leukaemia model in NSG mice (bioluminescence, survival). As to conditions: 1 mg/kg, day 16. The format is in vivo. As to the method: Adult NSG mice were sublethally irradiated with 2 Gy on the day before injection of cells. 5×10^6 fire fly luciferase expressing Jurkat cells in PBS were injected intravenously into the tail vein of mice. On the following day PBS, MAbs or ADC were injected intravenously into the tail vein at a dose of 1 mg/kg. Mice were regularly monitored for signs of morbidity and weight loss for the duration of the experiment. For imaging, mice were injected intraperitoneally with 3 mg D-luciferin in PBS. Mice were initially anesthetized with 4% isoflurane and then maintained at 2% isoflurane. Ten minutes after injection of D-luciferin, mice were imaged inside a IVIS Lumina III (PerkinElmer). A sub-saturating image was captured using the auto-exposure setting in the Living Image software.

Data set [7] concerns target cells. The experiment in a line: Live-imaging microscopy of antibody internalisation. Type of data set: cell-based. Conditions: live-imaging microscopy (data not shown). From the text: In particular, the lysosomal pathway can be important in providing an environment for cleavage of the antibody-drug linkers, hereby releasing the drug in the target cells for highly specific cell killing.

The test system of data set [8] is 293T (CD45-). Kind of data set: Cell viability assay 72 h (PrestoBlue), 293T. Type of data set: cell-based, human. As to conditions: drug-linker B1. The protocol:
OCIM1, Jurkat and Nalm6 cells were seeded at 0.5×10^5/mL were cultured for 72 hours in presence of Mab or ADC or medium (in triplicate wells) in wells of flat bottom 96-well plates. 293T cells were seeded at 9.3×10^3 cells per well in flat bottom 96-well plates and allowed to adhere the plate for up to 24 hours. 293T cells were subsequently cultured with Mab or ADC or medium (in triplicate wells) for 72 hours. PrestoBlue® Cell viability Reagent (Thermo Fisher Scientific) was added to each and incubated for up to 1.5 hours. Fluorescence intensity from each well was detected using a FLUOstar OPTIMA microplate reader (BMG Labtech). Data points are mean±s.d. for representative experiments.

Data set [9] can be described thus: Dosimetry in humanised NSG mice. The format is in vivo. As to conditions: 3 mg/kg, culled for weight loss >15%. As to the method: For dosimetry in humanised NSG mice, adult female NSG mice were sublethally irradiated with 2.5 Gy on the day before transplantation. Cryopreserved purified CD34+ cells from mobilized peripheral blood from a normal donor were thawed and 0.5×10^6 cells in PBS were injected intravenously into the tail vein. Human engraftment (human CD45+ cells) in the blood of all mice was determined by flow cytometry at 12 weeks post-transplant. Mice were assigned to treatment cohorts so that the median human engraftment in the blood for between cohorts was as similar as possible. Mice were treated with 0.3 mg/kg or 3 mg/kg Mab or ADC. Blood samples were taken after 7 days and analysed by flow cytometry. The bone marrow, blood and spleen of mice were analysed at 14 days post-treatment.

Setting [10] is: PBD ADCs in human IgG1-AAA format.

B1: YTH54.12 (antibody)
heavy: EVQLVESGGGLVQPGGSMKLSCAASGFTFSDYYMAWVRQAPKKGLEWVASMSFAGSSTYYGDSVKGRFTISRDNAKTTLYLQMNSLRSEDTATYYCARMYTTDYYLYWYFDFWGPGTMVTVSSAQTTAPSVYPLAPGCGDTTSSTVTLGCLVKGYFPEPVTVTWNSGALSSDVHTFPAVLQSGLYTLTSSVTSSTWPSQTVTCNVAHPASSTKVDKKVERRNGGIGHKCPTCPTCHKCPVPELLGGPSVFIFPPKPKDILLISQNAKVTCVVVDVSEEEPDVQFSWFVNNVEVHTAQTQPREEQYNSTFRVVSALPIQHQDWMSGKEFKCKVNNKALPSPIEKTISKPKGLVRKPQVYVMGPPTEQLTEQTVSLTCLTSGFLPNDIGVEWTSNGHIEKNYKNTEPVMDSDGSFFMYSKLNVERSRWDSRAPFVCSVVHEGLHNHHVEKSISRPPGK
light: DVQMTQSPSYLAASPGESVSISCKASKSISNYLAWYQQKPGEANKILIYSGSTLQSGTPSRFSGSGSGTDFSLTIRNLEPEDFAVYYCQQYDEKPLTFGSGTKLEIKRADAAPTVSIFPPSMEQLTSGGATVVCFVNNFYPRDISVKWKIDGSEQRDGVLDSVTDQDSKDSTYSMSSTLSLTKVEYERHNLYTCEVVHKTSSSPVVKSFNRNEC
Take B1: the “lytic activity on OCIM1 cells” value in [1] is recorded as “no lytic activity”. For the same molecule, in data set [2] (MAbs in human IgG1-AAA or rat IgG2b format, Isotype control and Isotype control PBD rat IgG2b format only), the “inhibition of colony formation” value is listed as “do not inhibit colony formation”. In addition, the “engraftment of human CD45+ cells in the bone marrow of NSG mice” value in data set [3] is listed as “prevented engraftment”. In addition, the “Comment (survival / culling)” value in [4] (5 mg/kg i.v.) is given as “All alive at day 14”. Further, the “Mean % hCD45 levels in blood, 1 week post-treatment” value in data set [5] (0.3 mg/kg i.v.) amounted to 3.19%; in data set [5] (1 mg/kg i.v.), 1.02%. The “Mean % hCD45 levels in blood, 2 weeks Post-treatment” value stood at 3.81% in data set [5] (0.3 mg/kg i.v.) and 1.84% in [5] (1 mg/kg i.v.). For the same molecule, the “course of the levels of human CD45+ cells in blood” value in data set [5] (1 mg/kg, two week period) was “transient reduction”. The “Mean % hCD45 levels in blood, Pre-treatment” value in data set [5] (group later dosed 0.3 mg/kg) was 5.52%; in [5] (group later dosed 1 mg/kg) it was 5.98%. The “bioluminescent signal of naked antibody group relative to the corresponding ADC group” value in [6] came to 10 fold. Besides, the internalisation result in [7] is “substantially internalised via a lysosomal pathway”.

B2: YTH24.5-hIgG1-AAA-PBD: YTH24.5 in human IgG1-AAA format conjugated to PBD drug-linker B1 (conjugate)
VH: QVNLLQSGAALVKPGASVKLSCKASSYTFTDYYIHWVKQSHGKTLEWIGYINPKSGFTNYNEKFRRKATLTVDKSTNTAYMDISRLTSEDSATYYCTRRTGVIPMDAWGQGASVTVSS
VL: DVVMTQTPVSLSVSLGGQVSISCRSSQSFVSSDGNTYLNWYLQKPGQSPQLLIYKVSNRLSGVPDRFSGSGSGTDFTLKISRVEHDDLGVYYCGQASKIPLTFGSGTKLEIK
A word on the EC50: it is the concentration giving half of the maximal effect. A lower EC50 goes with greater potency. In data set [8], B2 returned a half-maximal effective concentration (EC50) of 134 nM. In addition, the “inhibition of colony formation” value in [2] (setting [10]) is reported as “dose-dependent inhibition of colony formation”. Further, the “Comment (survival / culling)” value is given as “All alive at day 14” in data set [4] (0.5 mg/kg i.v.); 2 culled at day 6 - in data set [4] (5 mg/kg i.v.); 1 culled day 6, 1 in data set [9]. Besides, the “mice culled due to weight loss” value in [4] is given as 4 of the 6.

B3: YTH54.12-hIgG1-AAA-PBD: YTH54.12 in human IgG1-AAA format conjugated to PBD drug-linker B1 (conjugate)
VH: EVQLVESGGGLVQPGGSMKLSCAASGFTFSDYYMAWVRQAPKKGLEWVASMSFAGSSTYYGDSVKGRFTISRDNAKTTLYLQMNSLRSEDTATYYCARMYTTDYYLYWYFDFWGPGTMVTVSS
VL: DVQMTQSPSYLAASPGESVSISCKASKSISNYLAWYQQKPGEANKILIYSGSTLQSGTPSRFSGSGSGTDFSLTIRNLEPEDFAVYYCQQYDEKPLTFGSGTKLEIK
Turning to B3, the midpoint of the response in data set [8], the EC50, lay at 16.5 nM. Besides, in data set [2] (setting [10]), the “inhibition of colony formation” value is listed as “dose-dependent inhibition of colony formation”. Further, the “Comment (survival / culling)” value is reported as “All alive at day 14” in data set [4] (0.5 mg/kg i.v.), “All alive at day 14” in data set [4] (5 mg/kg i.v.) and 1 culled on day 9 in data set [9]. Also, the “mice culled due to weight loss” value in data set [4] is 1 of the 6.
